{"source": "patent US8431396B2", "about": "“Anti-angiogenic peptides” (The Cleveland Clinic Foundation, priority 2003, dated 2013)", "key": {"[1]": {"test_system": "PAEKDR cells", "test": "Tube formation assay in type 1 collagen gels", "format": "cell-based, porcine", "settings": "50 ng/ml VEGF; three-dimensional collagen gels", "procedure": "Type 1 collagen was mixed with 10×DMEM and 0.1 M NaOH (8:1:1), adjusted to a solution containing 10 μg/ml growth factor reduced matrigel matrix (BD, Biosciences), and then distributed in 48-well dishes. […] After 4 h of incubation at 37° C., a second layer of collagen was added, and cultures were kept under the same conditions as above described. Tube formation was examined using a phase-contrast microscopy at the indicated time points."}, "[2]": {"test_system": "soluble VEGFR-2", "test": "Soluble VEGFR-2 (sKDR) in conditioned medium (ELISA)", "format": "cell-based, human", "settings": "WT-TIMP3 cells; data not shown"}, "[3]": {"test_system": "PAEKDR cells", "test": "VEGF-stimulated migration (modified Boyden chamber) of transfected PAEKDR cells", "format": "cell-based, porcine", "settings": "VEGF 50 ng/ml", "procedure": "A modified Boyden chamber assay was carried out as described previously 34. Briefly, 8.0 μm pore PVPF polycarbonate membranes were pre-coated with 100 μg/ml collagen type I in 0.2 N acetic acid (Cohesion technologies, INC. Pala Alto, Calif.). […] Chamber was then incubated for 4 hrs at 37° C. in a 5% CO2 humidified incubator. Cells remaining on the top of the filter were removed. Cells on the bottom surface of the filter were fixed, stained and mounted. The number of migrating cells per well was counted microscopically."}, "[4]": {"molecular_target": "T1, PDGFR-β (Homo sapiens, UniProt P09619)", "T1 construct": "expressed in transfected cells; host or cells: porcine aortic endothelial (PAE) cells", "T1 sequence (P09619 33-1106, species assumed)": "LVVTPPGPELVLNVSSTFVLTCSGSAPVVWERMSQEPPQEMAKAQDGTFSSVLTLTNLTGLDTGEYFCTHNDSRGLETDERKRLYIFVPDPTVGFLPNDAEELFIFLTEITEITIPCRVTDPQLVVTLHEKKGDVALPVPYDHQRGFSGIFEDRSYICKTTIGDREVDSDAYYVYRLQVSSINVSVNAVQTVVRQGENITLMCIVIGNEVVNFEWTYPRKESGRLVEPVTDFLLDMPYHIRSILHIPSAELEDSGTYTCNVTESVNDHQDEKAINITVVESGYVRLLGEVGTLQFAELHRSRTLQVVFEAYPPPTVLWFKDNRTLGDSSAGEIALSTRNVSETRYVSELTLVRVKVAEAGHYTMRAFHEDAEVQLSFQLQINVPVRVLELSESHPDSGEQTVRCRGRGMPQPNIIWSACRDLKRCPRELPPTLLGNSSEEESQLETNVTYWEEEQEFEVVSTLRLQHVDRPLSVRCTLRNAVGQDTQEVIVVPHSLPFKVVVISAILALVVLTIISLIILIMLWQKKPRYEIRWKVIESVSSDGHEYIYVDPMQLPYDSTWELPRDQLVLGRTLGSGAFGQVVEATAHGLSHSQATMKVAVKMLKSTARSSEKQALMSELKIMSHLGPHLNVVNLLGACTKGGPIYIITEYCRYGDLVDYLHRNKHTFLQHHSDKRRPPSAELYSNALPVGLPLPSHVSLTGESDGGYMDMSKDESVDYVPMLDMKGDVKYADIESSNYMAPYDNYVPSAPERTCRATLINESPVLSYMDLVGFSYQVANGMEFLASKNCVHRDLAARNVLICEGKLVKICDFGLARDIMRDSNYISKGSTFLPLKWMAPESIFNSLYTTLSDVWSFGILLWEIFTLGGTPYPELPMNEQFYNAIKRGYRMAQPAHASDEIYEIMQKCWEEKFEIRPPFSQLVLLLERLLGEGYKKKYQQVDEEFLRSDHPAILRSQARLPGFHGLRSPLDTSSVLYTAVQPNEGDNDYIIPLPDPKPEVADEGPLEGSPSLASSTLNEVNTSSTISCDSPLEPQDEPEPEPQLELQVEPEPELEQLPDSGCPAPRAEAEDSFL", "test": "[125I]PDGF-BB binding to PAE-PDGFR-β cells", "settings": "recombinant TIMP3 or overexpression", "procedure": "Radioligand binding is expressed as percent binding and is the mean±s.e.m. of triplicate samples. […] All values are expressed as mean±s.e.m. of triplicate samples. […] Binding is expressed as mean±s.e.m.\nData were analyzed by Scatchard plot analyses."}, "[5]": {"test_system": "PAE-KDR cells", "test": "Endothelial cell migration toward VEGF (modified Boyden chamber)", "format": "cell-based, porcine", "procedure": "(B) Comparison of the effects of rTIMP3, rTIMP1 and BB3103 on VEGF165-induced migration of PAE-KDR cells. […] In all migration experiments, migrating cell number is expressed as mean±s.e.m. of quadruplicate samples. All experiments were done in triplicate. Open symbols, KDR-vector; closed symbols, KDR-TIMP3.*, P<0.01; **, P<0.05.\nA modified Boyden chamber assay for migration and proliferation assays were carried out as described."}}}
{"molecule": "TIMP3: tissue inhibitor of metalloproteinases-3; recombinant human form expressed in NSO myeloma cells, or wild-type expressed in transfected cells (protein, listed as Homo sapiens) MTPWLGLIVLLGSWSLGDWGAEACTCSPSHPQDAFCNSDIVIRAKVVGKKLVKEGPFGTLVYTIKQMKMYRGFTKMPHVQYIHTEASESLCGLKLEVNKYQYLLTGRVYDGKMYTGLCNFVERWDQLTLSQRKGLNYRYHLGCNCKIKSCYYLPCFVTSKNECLWTDMLSNFGYPGYQSKHYACIRQKGGYCSWYRGWAPPDKSIINATDP", "values": [{"measurement": "VEGF-stimulated tube formation", "setting": "[1]", "value": "severely compromised"}, {"measurement": "cleaved sVEGFR-2 in the CM, less than mock cells", "setting": "[2]", "value": 10, "unit": "fold"}, {"measurement": "VEGF-stimulated migration of cells expressing TIMP3 variant", "setting": "[3]", "value": "dramatically reduced basal and VEGF-stimulated migration"}, {"measurement": "inhibition of PDGF-BB binding to PAE-PDGFR-β cells", "setting": "[4]", "value": "Neither recombinant TIMP3 nor overexpression of TIMP3 could inhibit binding of PDGF-BB"}, {"measurement": "inhibition of endothelial cell migration toward VEGF", "setting": "[5]; added exogenously, VEGF165 10 ng/ml", "value": "inhibited their migration toward VEGF in a dose-dependent manner"}, {"measurement": "dose giving complete inhibition of migration toward VEGF", "setting": "[5]; recombinant protein added exogenously", "value": 3, "unit": "µg/mL"}, {"measurement": "chemotactic response to VEGF121 and VEGF165", "setting": "[5]; stable expression of TIMP3 in the endothelial cells", "value": "attenuation of the chemotactic response"}]}
